Test results from paper PMC2171675.

Target: neural cell adhesion molecule (NCAM) (mouse (endogenous in brain)) (UniProt P13595)
Assay: co-IP

Sequence of UniProt P13595 (P13595 20-1115): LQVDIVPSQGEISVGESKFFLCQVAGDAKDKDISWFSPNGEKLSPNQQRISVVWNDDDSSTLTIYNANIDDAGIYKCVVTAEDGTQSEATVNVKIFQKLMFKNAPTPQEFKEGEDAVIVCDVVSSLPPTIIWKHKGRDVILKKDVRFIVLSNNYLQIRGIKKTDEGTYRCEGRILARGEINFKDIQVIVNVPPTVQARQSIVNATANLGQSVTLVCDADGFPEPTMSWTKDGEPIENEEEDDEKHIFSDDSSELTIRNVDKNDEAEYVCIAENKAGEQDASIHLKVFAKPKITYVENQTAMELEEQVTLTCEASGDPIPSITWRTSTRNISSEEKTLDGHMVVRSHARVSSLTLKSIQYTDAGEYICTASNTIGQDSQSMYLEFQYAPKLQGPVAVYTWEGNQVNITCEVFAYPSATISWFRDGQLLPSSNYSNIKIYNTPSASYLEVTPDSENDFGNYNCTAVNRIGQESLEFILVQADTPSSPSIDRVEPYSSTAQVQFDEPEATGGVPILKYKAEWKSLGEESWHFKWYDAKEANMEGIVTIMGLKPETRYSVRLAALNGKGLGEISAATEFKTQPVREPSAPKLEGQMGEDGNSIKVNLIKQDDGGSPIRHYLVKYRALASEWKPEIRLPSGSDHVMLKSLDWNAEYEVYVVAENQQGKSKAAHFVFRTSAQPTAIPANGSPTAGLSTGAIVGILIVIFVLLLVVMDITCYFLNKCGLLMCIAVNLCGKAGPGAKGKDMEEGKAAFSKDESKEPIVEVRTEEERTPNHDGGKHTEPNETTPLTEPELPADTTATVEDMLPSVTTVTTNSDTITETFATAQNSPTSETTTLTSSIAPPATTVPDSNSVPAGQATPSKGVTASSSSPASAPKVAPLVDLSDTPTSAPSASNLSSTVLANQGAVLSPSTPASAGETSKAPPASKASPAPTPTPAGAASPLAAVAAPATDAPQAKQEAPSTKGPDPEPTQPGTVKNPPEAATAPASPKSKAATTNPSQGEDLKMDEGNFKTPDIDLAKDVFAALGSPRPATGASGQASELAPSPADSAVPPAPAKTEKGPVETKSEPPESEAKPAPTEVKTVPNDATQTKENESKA

reduction of the co-immunoprecipitated complex with 2 mM EDTA against with Ca2+: 60%
Substance: receptor-like protein tyrosine phosphatase RPTPα (natural protein)
